Experimental findings from paper PMC6382874, “Succinylation-dependent mitochondrial translocation of PKM2 promotes cell survival in response to nutritional stress” (Cell Death & Disease, 2019) are described below.

In the experiment the target is T1, His-PKM2 (human, UniProt P14618 1-531).
T1 construct: Pyruvate kinase M2 (PKM2), human cDNA cloned into pET28a(+); also called His-tagged-PKM2; source: E. coli BL21, purified (Ni–agarose beads); not shown: His-tag, N-terminal, kept
Description: pull-down; in vitro binding of His-PKM2 (2.5 μg) and GST-VDAC3, Ni–NTA agarose, western blot with anti-GST or anti-His antibody. The conditions noted are these: both partners purified. In general terms: Immunoblotting shows a protein as a band on a membrane.

T1 sequence (P14618 whole entry): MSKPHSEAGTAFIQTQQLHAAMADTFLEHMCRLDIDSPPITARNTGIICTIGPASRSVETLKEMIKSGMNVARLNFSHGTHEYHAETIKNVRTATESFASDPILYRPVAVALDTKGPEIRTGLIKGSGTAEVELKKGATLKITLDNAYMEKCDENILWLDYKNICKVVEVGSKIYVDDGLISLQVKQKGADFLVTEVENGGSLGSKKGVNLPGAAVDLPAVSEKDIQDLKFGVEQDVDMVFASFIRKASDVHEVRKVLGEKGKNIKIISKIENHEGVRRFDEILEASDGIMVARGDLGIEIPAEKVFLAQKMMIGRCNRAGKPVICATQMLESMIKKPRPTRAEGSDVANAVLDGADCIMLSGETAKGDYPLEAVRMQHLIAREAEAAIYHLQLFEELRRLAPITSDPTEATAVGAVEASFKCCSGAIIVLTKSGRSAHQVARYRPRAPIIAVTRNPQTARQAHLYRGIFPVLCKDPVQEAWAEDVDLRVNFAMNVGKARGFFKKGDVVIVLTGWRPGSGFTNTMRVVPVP

B1: GST-VDAC3 (natural protein, human, UniProt Q9Y277 1-283, looked up)
chain: MCNTPTYCDLGKAAKDVFNKGYGFGMVKIDLKTKSCSGVEFSTSGHAYTDTGKASGNLETKYKVCNYGLTFTQKWNTDNTLGTEISWENKLAEGLKLTLDTIFVPNTGKKSGKLKASYKRDCFSVGSNVDIDFSGPTIYGWAVLAFEGWLAGYQMSFDTAKSKLSQNNFALGYKAADFQLHTHVNDGTEFGGSIYQKVNEKIETSINLAWTAGSNNTRFGIAAKYMLDCRTSLSAKVNNASLIGLGYTQTLRPGVKLTLSALIDGKNFSAGGHKVGLGFELEA
notes: VDAC3, human cDNA cloned into pGEX-4T-1; also called GST-tagged-VDAC3; source: E. coli BL21, purified (GST agarose beads); the pull-down method also calls it in vitro translated; not shown: GST, N-terminal, kept
For the molecule B1, the binding result is “binds”.
